Assay results as given in PMC5011719, “The amyloid fold of Gad m 1 epitopes governs IgE binding” (Scientific Reports, 2016).

Molecular target: the molecule itself
Assay: AFM + dynamic light scattering; fibril dimensions from AFM images (2 nm height, 15 nm diameter, average length 350 nm) and the RH of the monomer from DLS; geometrical calculation

B1: rGad m 1 wt (recombinant Gad m 1, Atlantic cod beta-parvalbumin) (natural protein, UniProt A5I874 1-109, looked up)
chain: MAFAGILNDADITAALAACKAEGSFDHKAFFTKVGLAAKSSADIKKVFEIIDQDKSDFVEEDELKLFLQNFSAGARALSDAETKVFLKAGDSDGDGKIGVDEFGAMIKA
notes: Gad m 1, Atlantic cod beta-parvalbumin; synthetic ORF in pET15b; Monomer in Ca2+, forms amyloids in EDTA; also called rGad wt; not shown: 6XHis, N-terminal, kept
stoichiometry N: 370
